Experimental data published in patent US8962344B2, “Membrane-coated particles” (Synamem Corporation, priority 2008, dated 2015).

Key:
[1] = biological target: T1, transferrin receptor (Cricetulus griseus, UniProt Q07891); assay: Ligand binding and displacement assay on membrane-coated particles (fluorescence microscopy); parameters: species or system Chinese Hamster
T1 construct: present endogenously in membrane-coated particles derived from CHO cell membranes; endogenous in cells; host or cells: CHO cell membranes deposited on silica microspheres
Procedure: (§1) The binding of transferrin to its receptor was studied for ligand/receptor interactions, present endogenously in membrane-coated particles derived from CHO cell membranes (Example 1). Freshly-prepared membrane-coated particles were resuspended in 1 ml of binding buffer (10 mM Tris-HCl pH 7.4, 100 mM NaCl). Beads were subsequently pelleted and resuspended in 1 ml of blocking buffer (0.1% w/v casein in binding buffer), and incubated at room temperature for 15 minutes with rotation. Beads were pelleted and resuspended in 980 μL of binding buffer. At this time, any inhibitors or antagonists (e.g. excess of unlabeled transferrin) could have been added for a pre-incubation step. ALEXA FLUOR® 488-conjugated human holotransferrin was added to the membrane-coated particles at a final concentration of 10 μg/ml, followed by incubation at room temperature for 15 minutes with rotation. Following the incubation with transferrin, the beads were washed twice with binding buffer in preparation for viewing using fluorescence microscopy (same microscope apparatus as described in Example 1). The accessibility of membrane proteins (in this case the transferrin receptor) to interact with various ligands and test agents (in this case transferrin) is shown by the results (see FIGS. 2A-2E).

[2] = Labeled ligand binding to bare silica beads (control for non-specific binding); conditions: silica beads devoid of membranes; FIG. 2C
Procedure: as §1

T1 sequence (Q07891 whole entry): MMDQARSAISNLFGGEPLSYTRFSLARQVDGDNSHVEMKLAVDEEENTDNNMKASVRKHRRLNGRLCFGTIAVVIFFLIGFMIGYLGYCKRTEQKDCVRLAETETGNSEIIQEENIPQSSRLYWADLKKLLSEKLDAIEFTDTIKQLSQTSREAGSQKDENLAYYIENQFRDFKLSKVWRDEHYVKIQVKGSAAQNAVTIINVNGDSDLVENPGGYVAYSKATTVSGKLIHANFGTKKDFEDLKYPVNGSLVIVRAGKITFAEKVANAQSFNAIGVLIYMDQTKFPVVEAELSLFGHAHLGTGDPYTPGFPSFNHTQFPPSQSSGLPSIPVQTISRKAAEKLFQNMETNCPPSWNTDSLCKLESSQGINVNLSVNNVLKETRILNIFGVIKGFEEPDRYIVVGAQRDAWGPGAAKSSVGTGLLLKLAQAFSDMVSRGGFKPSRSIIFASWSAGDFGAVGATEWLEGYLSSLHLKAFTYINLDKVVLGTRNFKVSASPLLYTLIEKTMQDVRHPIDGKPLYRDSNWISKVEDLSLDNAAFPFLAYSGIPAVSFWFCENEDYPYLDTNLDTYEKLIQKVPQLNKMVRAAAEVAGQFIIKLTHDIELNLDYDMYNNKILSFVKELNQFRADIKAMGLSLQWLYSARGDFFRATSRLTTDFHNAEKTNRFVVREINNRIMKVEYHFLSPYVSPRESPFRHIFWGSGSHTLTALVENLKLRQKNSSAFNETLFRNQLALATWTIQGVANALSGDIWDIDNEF

| Substance | binding of fluorescently-labeled transferrin to the membrane-coated particles ([1]; endogenously-expressed transferrin receptor, CHO cell membranes on silica beads, 10 μg/ml, room temperature, 15 minutes, FIG. 2A) | interaction of fluorescently-labeled transferrin with bare silica [2] | competition of labeled transferrin binding ([1]; 100-fold molar excess of unlabeled transferrin, CHO membrane-coated particles, FIG. 2B) |
| --- | --- | --- | --- |
| fluorescently-labeled transferrin: ALEXA FLUOR® 488-conjugated human holotransferrin, labeled ligand of the transferrin receptor | binds efficiently | does not interact appreciably | – |
| unlabeled transferrin: unlabeled transferrin used in excess as competitor of labeled transferrin binding | – | – | readily competed away |
